For one data set, the target named is ACE2 ectodomain (ACE2e) (Homo sapiens, UniProt Q9BYF1 Q9BYF1:19-615). Briefly: flow. The following applies: tags: N-terminal myc, C-terminal HRV 3C site and 8xHis; FreeStyle 293F expressed.
Data set [1] has as its target SARS-CoV-2 spike receptor-binding domain (RBD) (SARS-CoV-2, UniProt P0DTC2 P0DTC2:319-591). Briefly: flow.

Chain of ACE2 ectodomain (ACE2e) (Q9BYF1 19-615, one chain of several): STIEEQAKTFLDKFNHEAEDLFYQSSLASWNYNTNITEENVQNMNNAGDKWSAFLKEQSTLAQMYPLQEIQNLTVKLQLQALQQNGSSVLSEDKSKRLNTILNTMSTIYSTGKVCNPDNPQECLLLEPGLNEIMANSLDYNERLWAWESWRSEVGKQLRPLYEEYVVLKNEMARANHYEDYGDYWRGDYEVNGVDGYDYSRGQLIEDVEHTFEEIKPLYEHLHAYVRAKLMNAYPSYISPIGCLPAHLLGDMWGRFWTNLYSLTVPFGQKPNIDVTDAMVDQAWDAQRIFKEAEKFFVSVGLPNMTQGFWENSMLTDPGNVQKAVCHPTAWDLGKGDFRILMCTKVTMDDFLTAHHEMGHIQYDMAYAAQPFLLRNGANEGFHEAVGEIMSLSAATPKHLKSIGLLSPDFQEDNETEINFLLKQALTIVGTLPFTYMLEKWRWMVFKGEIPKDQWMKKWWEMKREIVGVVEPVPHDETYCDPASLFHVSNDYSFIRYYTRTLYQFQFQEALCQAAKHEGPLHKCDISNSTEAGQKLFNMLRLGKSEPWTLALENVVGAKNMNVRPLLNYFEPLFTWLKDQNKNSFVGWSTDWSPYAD

B1: SP7 (ssDNA)
DNA: GGGAGAGGAGGGAGATAGATATCAAAGGAGGGTAGGTAGTGCTTGGTAGGGAAACTCCGCCGATTTTTCGTGGATGCCACAGGAC
As to B1, the binding result (in the data set with ACE2 ectodomain (ACE2e); in data set [1]) was “no binding” in each case.

B2: SP5 (ssDNA)
DNA: GGGAGAGGAGGGAGATAGATATCAACCATGGTAGGTATTGCTTGGTAGGGATAGTGGGCTTGATGTTTCGTGGATGCCACAGGAC
Consider B2, for which the binding result (with ACE2 ectodomain (ACE2e); in data set [1]) was “no binding” each time.

B3: SP8 (ssDNA)
DNA: GGGAGAGGAGGGAGATAGATATCAAAAGGAGGGTAGGTAGTGCTTGGTAGGGAAACTCCGCCGATTTTTCGTGGATGCCACAGGAC
As to B3, the binding result (with ACE2 ectodomain (ACE2e); in data set [1]) was “no binding” throughout.

B4: SP6 (ssDNA)
DNA: GGGAGAGGAGGGAGATAGATATCAACCCATGGTAGGTATTGCTTGGTAGGGATAGTGGGCTTGATGTTTCGTGGATGCCACAGGAC
For the molecule B4, the binding result (in the data set with ACE2 ectodomain (ACE2e); in data set [1]) was “no binding” each time.

(Values after patent publication US20240076680 (RHEINISCHE FRIEDRICH-WILHELMS-UNIVERSITÄt BONN, published 2024).)
